This note sets out measurements from publication PMC3137622, “Mechanisms of Allergen-Antibody Interaction of Cockroach Allergen Bla g 2 with Monoclonal Antibodies That Inhibit IgE Antibody Binding” (PLoS ONE, 2011).

In the test the target is T1, natural Bla g 2 (Blattella germanica, UniProt P54958).
T1 construct: Glycosylated natural allergen; also called nBla g 2; natural allergen
As to the kind of experiment: ELISA; two-site dose-response: mAb 7C11 or 4C3 as capture antibody, allergen titrated, detection with biotinylated mAb 4C3 (21 nM) or 7C11 (4 nM), respectively, or polyclonal antibody (53 nM). As to conditions: both partners purified. In general terms: ELISA stands for enzyme-linked immunosorbent assay.

T1 sequence (P54958 whole entry, looked up): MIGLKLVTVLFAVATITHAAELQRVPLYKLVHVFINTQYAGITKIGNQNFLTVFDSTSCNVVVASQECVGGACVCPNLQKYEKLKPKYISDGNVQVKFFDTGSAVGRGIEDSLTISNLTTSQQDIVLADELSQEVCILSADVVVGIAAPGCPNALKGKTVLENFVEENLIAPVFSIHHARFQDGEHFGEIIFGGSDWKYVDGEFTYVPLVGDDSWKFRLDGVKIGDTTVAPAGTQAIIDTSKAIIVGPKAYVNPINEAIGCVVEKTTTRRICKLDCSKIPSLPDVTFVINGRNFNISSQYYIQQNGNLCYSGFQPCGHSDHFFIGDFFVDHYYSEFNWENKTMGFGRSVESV

B1: monoclonal antibody 7C11 (anti-Bla g 2) (antibody, V domains shown)
VH: EIQLQQSGAELVKPGASVKLSCTASGFNIKDTYIHWVKQRPEQGLEWIGRIDPANGNTRYGPKFLGKATITADTSSNTAYLHLNSLTSEDTAVYFCARWVRQMDYWGQGTSVTVSS
VL: DIVMTQSHKFMSTSVGDRVSITCKASQIVSTAVAWYQQKPGQSPKLLIYSASYRYTGVPDRFTGSGSGTDFTFTISSVQAEDLAVYYCQQHYNSPQTFGGGTKLEIK
notes: the Fab' of mAb 7C11 stands in PDB 2nr6 (complex with Bla g 2), heavy chain; the Fab' of mAb 7C11 stands in PDB 2nr6 (complex with Bla g 2), light chain; Whole mAb in the assays; the PDB entry holds only the Fab' fragment; also called mAb 7C11; biotinylated mAb 7C11
Take B1: the binding result is reported as “binds”.

B2: monoclonal antibody 4C3 (anti-Bla g 2) (antibody, V domains shown)
VH: EVQLVESGGGLVQPGGSLKLSCAASGFTFSSFAMSWGRQTPDKRLELVATINSNGASTYYPDTVKGRFTISRDNAKNTLFLQMSSLKSEDTAMYYCTRDPAGRAWFAYWGQGTLVTVSA
VL: QIVLTQSPSSMYASLGERVTITCKASQDINNYLSWFQQKPGKSPKTLIYRADRLVDGVPSRVSGSGSGQDYSLTISSLEYEDLGIYYCLQYDELPYTFGGGTKLEIK
notes: the Fab of mAb 4C3 stands in PDB 3liz (complex with Bla g 2), heavy chain; the Fab of mAb 4C3 stands in PDB 3liz (complex with Bla g 2), light chain; Whole mAb in the assays; the PDB entry holds only the Fab fragment; also called mAb 4C3; biotinylated mAb 4C3
On to B2, for which the binding result was “binds”.
